In patent US12065471B2, “B*44 restricted peptides for use in immunotherapy against cancers and related methods” (Immatics Biotechnologies GmbH, priority 2018, dated 2024):

Each substance was assayed against HLA-B*44:05 (Homo sapiens, UniProt P01889, A223V/A65T/A93T/A95T/D201E/D98Y/E176V/E187L/E204Q/E69K/G107R/H137Y/K202T/L105A/L119I/N104T/N87E/Q56L/Q94N/R106L/R155S/R180D/S101N/S121R/S35A/S48T/T118I/V36M/W191S/Y91S) (assay: MHC binding assay (UV-ligand exchange, β2m ELISA, peptide exchange yield)). Conditions: binding to HLA-B*44:05.
In short: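 Binding is read as exchange yield, i.e. stabilized complex remaining after UV cleavage of a photolabile ligand in the presence of the candidate peptide. Streptavidin-captured monomers (100-fold dilution) are probed with HRP-anti-β2m, 1h at 37° C, TMB, A450. Standard curve: HLA-A*02:01/MLA-001 monomers at 15-500 ng/ml.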
With “187 (TEQALRLSV; listed as Homo sapiens) [compound 187]” the “Peptide exchange (MHC class I binding score, peptide exchange yield)” value (from here on “Peptide exchange”) was “++++ (>75% = ++++)”. For “366 (EECGKAFKKF; listed as Homo sapiens) [compound 366]”, the “Peptide exchange” value was “+++ (>50 = +++)”. In the case of “190 (NEAGEVSKHF; listed as Homo sapiens) [compound 190]”, the “Peptide exchange” value is reported as “+++ (>50 = +++)”. With “117 (SEVPVDSHY; listed as Homo sapiens) [compound 117]” the “Peptide exchange” value was “+++ (>50 = +++)”. With “400 (TELGLFGVW; listed as Homo sapiens) [compound 400]” the “Peptide exchange” value was “++++ (>75% = ++++)”. “249 (YEMAIYKKY; listed as Homo sapiens) [compound 249]” was tested, and the “Peptide exchange” value was “++++ (>75% = ++++)”. In the case of “324 (QELSSIRQF; listed as Homo sapiens) [compound 324]”, the “Peptide exchange” value is reported as “+++ (>50 = +++)”. For “229 (AEDLEKKYA; listed as Homo sapiens) [compound 229]”, the “Peptide exchange” value was “++ (>20% = ++)”. With “178 (MEGAALLKIF; listed as Homo sapiens) [compound 178]” the “Peptide exchange” value was “+++ (>50 = +++)”. In the case of “85 (SEIDEKVTDL; listed as Homo sapiens) [compound 85]”, the “Peptide exchange” value is reported as “+++ (>50 = +++)”. In the case of “284 (SQYPHTHTF; listed as Homo sapiens) [compound 284]”, the “Peptide exchange” value is reported as “+++ (>50 = +++)”. For “399 (IEQADWPEI; listed as Homo sapiens) [compound 399]”, the “Peptide exchange” value was “++ (>20% = ++)”. For “355 (SETSTGTSV; listed as Homo sapiens) [compound 355]”, the “Peptide exchange” value was “++ (>20% = ++)”. In the case of “272 (SEQNIQRANLF; listed as Homo sapiens) [compound 272]”, the “Peptide exchange” value is reported as “+++ (>50 = +++)”. With “226 (AEDNMVTSY; listed as Homo sapiens) [compound 226]” the “Peptide exchange” value was “+++ (>50 = +++)”. With “369 (KELEERMLHW; listed as Homo sapiens) [compound 369]” the “Peptide exchange” value was “++++ (>75% = ++++)”. For “90 (EESLLSSW; listed as Homo sapiens) [compound 90]”, the “Peptide exchange” value was “+++ (>50 = +++)”. For “454 (SESSSAFQF; listed as Homo sapiens) [compound 454]”, the “Peptide exchange” value was “+++ (>50 = +++)”. With “144 (IEAYLERIGY; listed as Homo sapiens) [compound 144]” the “Peptide exchange” value was “+++ (>50 = +++)”. With “251 (DESADSEPHKY; listed as Homo sapiens) [compound 251]” the “Peptide exchange” value was “+ (>10% = +)”. In the case of “38 (DEVRFFKGNKY; listed as Homo sapiens) [compound 38]”, the “Peptide exchange” value is reported as “++ (>20% = ++)”. In the case of “221 (KEAFGPQAL; listed as Homo sapiens) [compound 221]”, the “Peptide exchange” value is reported as “++++ (>75% = ++++)”. In the case of “169 (KEHNSSVPWSS; listed as Homo sapiens) [compound 169]”, the “Peptide exchange” value is reported as “++++ (>75% = ++++)”. With “344 (DEIRVFGY; listed as Homo sapiens) [compound 344]” the “Peptide exchange” value was “++ (>20% = ++)”. With “396 (MELLFLDTF; listed as Homo sapiens) [compound 396]” the “Peptide exchange” value was “++ (>20% = ++)”. In the case of “237 (QEIGQKTSV; listed as Homo sapiens) [compound 237]”, the “Peptide exchange” value is reported as “+++ (>50 = +++)”. For “165 (EEIEAHIAL; listed as Homo sapiens) [compound 165]”, the “Peptide exchange” value was “+++ (>50 = +++)”. “123 (DEINHQSL; listed as Homo sapiens) [compound 123]” was tested, and the “Peptide exchange” value was “++ (>20% = ++)”.
